Measurements as given in US20250154283A1 (published 2025).

T1: biotinylated human VWF cysteine knot (CK) domain construct (human, biotin on the in vitro biotinylation tag (residue not stated); one N-glycan)
T1 construct: Disulfide-linked homodimer; also called biotinylated human VWF CK domain; human VWF CK domain construct
T1 chain: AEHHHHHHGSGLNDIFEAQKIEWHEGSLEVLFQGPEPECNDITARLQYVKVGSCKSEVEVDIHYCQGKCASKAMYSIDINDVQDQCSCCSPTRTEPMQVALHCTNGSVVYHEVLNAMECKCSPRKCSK


Biological target: T1, biotinylated human VWF cysteine knot …
Experiment: SPR, scFv captured on anti-SV5, pH 7.4

Row | Binder | binding result
1 | 2301_Lib4_scFv (scFv, not shown: small tags and cut ends) scFv: QVQLQESGPGLVKPSQTLSLTCTVSGASISTSDHSWSWIRQPPGKGLEWIGYIRDTGSTDYNPSLKSRVTMSVDTSKNQFSLKVNSVTAADTAVYYCAISSTERWKQSFGVDTEYFQHWGQGTLVTVSSSGGSTITSYNVYYTKLSSSGTEIVMTQSPATLSLSPGERATLSCRASRYVSTNLAWYQQKPGQAPRLLIYDAVTRAPGIPARFSGSGSGTDFTLTISSLEPEDFAVYYCQQYHSLPLIFGGGTKVEIK | binds
2 | Lib1_P1_G3_scFv (scFv, not shown: small tags and cut ends) scFv: QVQLVQSGAEVKKPGASVKVSCKVSGYTSRQYIHWVRQAPGKGLEWMGWVTPIFGTTNYAQKFQGRVTMTEDTSTDTAYMELSSLKSEDTAVYYCAREWTGTTAFDIWGQGTLVTVSSSGGSTITSYNVYYTKLSSSGTDIQMTQSPSSVSASVGDRVTITCRASQDIGHYLAWYQQKPGKAPKLLIYAASNRASGVPSRFSGSGSGTDFTLTISSLQPEDFANYYCQQGYSAPYGFGGGTKVEIK | binds
3 | 16_Lib8_scFv (scFv, not shown: small tags and cut ends) scFv: EVQLVESGGGLVQPGRSLRLSCAASGFRFDEYDMHWVRQAPGKGLEWVSAISSESASIDYADSVEGRFTISRDNAKNSLYLQMNSLRAEDTAVYYCARDGAYGDYFDYWGQGTMVTVSSSGGSTITSYNVYYTKLSSSGTDIQMTQSPSSLSASVGDRVTITCRASQDIKSWLAWYQQKPGKAPKLLIYGASTLQSGVPSRFSGSGSGTDFTLTISSLQPEDVATYYCQQSYSAPYTFGGGTKVEIK | binds

Second part, the binder after the results:

Row | binding result | Binder
4 | binds | 399_Lib1_scFv (scFv, not shown: small tags and cut ends) scFv: QVQLVQSGAEVKKPGASVKVSCKVSGITFTSDYIHWVRQAPGKGLEWMGGMNPYSNKAIYAQKFQGRVTMTEDTSTDTAYMELSSLKSEDTAVYYCATGGLRIAARTSYFDYWGQGTLVTVSSSGGSTITSYNVYYTKLSSSGTDIQMTQSPSSVSASVGDRVTITCRASMDIAGSLAWYQQKPGKAPKLLIYDTSFRATGVPSRFSGSGSGTDFTLTISSLQPEDFANYYCQQYDNPPRLTFGGGTKVEIK
5 | binds | 11485_Lib1_scFv (scFv, not shown: small tags and cut ends) scFv: QVQLVQSGAEVKKPGASVKVSCKVSGAPSAAIIHWVRQAPGKGLEWMGGFTQIFGTAIYAQKFQGRVTMTEDTSTDTAYMELSSLKSEDTAVYYCAREGIGGHDAFDIWGQGTMVTVSSSGGSTITSYNVYYTKLSSSGTDIQMTQSPSSVSASVGDRVTITCRASQDISKNLAWYQQKPGKAPKLLIYKASKLESGVPSRFSGSGSGTDFTLTISSLQPEDFANYYCLHDYTYPPTFGGGTKVEIK
6 | binds | Lib1_P1_A2_scFv (scFv, not shown: small tags and cut ends) scFv: QVQLVQSGAEVKKPGASVKVSCKVSEGTLSRHYINWVRQAPGKGLEWMGGINAKSGATIYAQKFQGRVTMTEDTSTDTAYMELSSLKSEDTAVYYCAKDTGDDILTDYSDAFDIWGQGTMVTVSSSGGSTITSYNVYYTKLSSSGTDIQMTQSPSSVSASVGDRVTITCRASQNIGTSLAWYQQKPGKAPKLLIYGASNLESGVPSRFSGSGSGTDFTLTISSLQPEDFANYYCLQYNDWPPLYSFGGGTKVEIK
7 | binds | 4956_Lib1_scFv (scFv, not shown: small tags and cut ends) scFv: QVQLVQSGAEVKKPGASVKVSCKVSGYTLTSNYIHWVRQAPGKGLEWMGGFNPSSGSTIYAQKFQGRVTMTEDTSTDTAYMELSSLKSEDTAVYYCARTLYDFWSGYLDAFDIWGQGTMVTVSSSGGSTITSYNVYYTKLSSSGTDIQMTQSPSSVSASVGDRVTITCRASQNIRSSLAWYQQKPGKAPKLLIYAASNLEPGVPSRFSGSGSGTDFTLTISSLQPEDFANYYCQQYEDTPLTFGGGTKVEIK
8 | binds | Lib4_P2_A10_scFv (scFv, not shown: small tags and cut ends) scFv: QVQLQESGPGLVKPSQTLSLTCTVSGASLGHQYWSWIRQPPGKGLEWIGYIDTSGSTDYNPSLKSRVTMSVDTSKNQFSLKVNSVTAADTAVYYCARVANYYYYMDVWGKGTTVTVSSSGGSTITSYNVYYTKLSSSGTEIVMTQSPATLSLSPGERATLSCRASQSVSNRLAWYQQKPGQAPRLLIYDASNRATGIPARFSGSGSGTDFTLTISSLEPEDFAVYYCQQYFITPSTFGGGTKVEIK
